Results taken from US20100105864A1, “PROPHYLACTIC OR THERAPEUTIC AGENT FOR DIARRHEA” (priority 2007, published 2010).
Starred links: 1 amine or outer side, 2 acyl side, 3 side chain; linkers in the order of their positions; H or OH if unused. Non-standard residues stand in square brackets, D forms with d. Residues, ends and D or L forms follow the SMILES beside them. Primed or numbered codes have the meaning given here. No end group written: not given here. *: point of attachment. GlyA = glycolic acid (-OCH2CO2H), esterified to the C-terminal carboxyl, O=C(O)CO*; GlyA″ = glycolic acid, ester to the C-terminal carboxyl, -OCH2CO2H, O=C(O)CO*; LacA″ = lactic acid residue, ester -OCH(CH3)CO2H at the C-terminus; Cys(S-allyl) = S-allylcysteine, C=CCSC[C@H](N[*:1])C(=O)[*:2]; Cys(S-Me) = S-methylcysteine, CSC[C@H](N[*:1])C(=O)[*:2]; γGlu = O=C(O)[C@H](CCC(=O)[*:2])N[*:1]; Tle = CC(C)(C)[C@H](N)C(=O)O; Orn = NCCC[C@H](N)C(=O)O; Abu = CC[C@H](N)C(=O)O; LacA = lactic acid

T1: human calcium receptor (Homo sapiens, UniProt P41180)
T1 construct: expressed in transfected cells; host or cells: Xenopus laevis oocytes injected with cRNA
T1 sequence (P41180 20-1078): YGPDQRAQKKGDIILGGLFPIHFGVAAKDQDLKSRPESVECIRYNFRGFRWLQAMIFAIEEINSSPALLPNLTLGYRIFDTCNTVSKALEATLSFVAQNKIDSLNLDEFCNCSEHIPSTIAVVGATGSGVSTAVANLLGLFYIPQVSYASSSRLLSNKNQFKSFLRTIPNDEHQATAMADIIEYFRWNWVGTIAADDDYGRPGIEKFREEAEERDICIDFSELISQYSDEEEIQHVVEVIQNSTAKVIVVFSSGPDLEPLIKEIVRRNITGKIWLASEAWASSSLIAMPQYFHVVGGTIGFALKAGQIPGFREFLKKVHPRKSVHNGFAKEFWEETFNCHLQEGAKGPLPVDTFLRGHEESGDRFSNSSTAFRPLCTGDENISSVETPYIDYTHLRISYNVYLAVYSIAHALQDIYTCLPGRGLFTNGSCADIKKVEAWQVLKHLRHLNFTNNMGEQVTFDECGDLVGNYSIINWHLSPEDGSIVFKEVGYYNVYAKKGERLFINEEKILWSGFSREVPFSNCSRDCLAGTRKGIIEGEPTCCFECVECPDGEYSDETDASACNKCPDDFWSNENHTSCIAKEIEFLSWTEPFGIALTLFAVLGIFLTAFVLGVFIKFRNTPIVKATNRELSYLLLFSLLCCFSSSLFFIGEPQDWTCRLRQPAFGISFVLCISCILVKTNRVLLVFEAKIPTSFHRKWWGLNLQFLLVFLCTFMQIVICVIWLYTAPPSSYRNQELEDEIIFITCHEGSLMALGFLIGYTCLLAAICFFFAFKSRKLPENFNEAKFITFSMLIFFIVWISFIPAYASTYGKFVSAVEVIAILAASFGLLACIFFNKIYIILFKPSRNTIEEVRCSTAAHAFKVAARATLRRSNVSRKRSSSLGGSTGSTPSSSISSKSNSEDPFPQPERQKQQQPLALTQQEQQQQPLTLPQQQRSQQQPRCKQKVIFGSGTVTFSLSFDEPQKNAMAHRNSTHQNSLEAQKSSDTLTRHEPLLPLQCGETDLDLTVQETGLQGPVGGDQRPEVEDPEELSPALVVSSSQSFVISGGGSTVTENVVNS

T2: human calcium receptor (human, UniProt P41180 20-1078)
T2 sequence (looked up): T1 sequence (P41180 20-1078)


Assays:
[1] = molecular target: T1, human calcium receptor; assay: Ca ion concentration-dependent Cl ionic current measurement in Xenopus laevis oocytes expressing the calcium receptor; assay type: cell-based; conditions: for Activity (lowest concentration at which current was detected): peptide added at 1,000, 300, 100, 30, 10, 3, 1, 0.3 and 0.1 μM
Procedure: For evaluation of the calcium receptor-activating action, a Ca ion concentration-dependent Cl ionic current measuring method using a Xenopus laevis oocyte expression system was used. If each activator is added to Xenopus laevis oocytes expressing the calcium receptor, intracellular Ca ions increase. Then, the Ca ion concentration-dependent Cl channel opens, and the intracellular current value changes as an ionic current. By measuring the change in the intracellular current value, whether the calcium receptor-activating action is present or not can be determined.
Specifically, the abdomen of Xenopus laevis was opened, and an egg batch was taken out and then treated with a 1% collagenase solution at 20° C. for 2 hours to obtain individual oocytes. Into the oocytes, 50 nl of 1 μg/μl receptor cRNA or 50 nl of sterilized water per oocyte were injected by using a micro glass capillary, and the oocytes were cultured at 18° C. for 2 to 3 days. For the culture, a solution obtained by adding 2 mM pyruvic acid, 10 U/ml penicillin, and 10 μg/ml streptomycin to the solution in Example 2 was used. After the culture, a test solution was added to the oocytes injected with cRNA or sterilized water. Electrophysiological measurement was performed by using an amplifier Geneclamp 500 (manufactured by Axon) and recording software AxoScope 9.0 (manufactured by Axon). The oocytes were membrane potential-clamped at −70 mV by the double electrode potential clamp method, and the intracellular current was measured via the Ca ion concentration-dependent Cl ion channel. The maximum value of the intracellular current was defined as the response current value. […]
The calcium receptor-activating action of L-amino acids was evaluated by using the method described in Example 13. That is, oocytes injected with cRNA of the calcium receptor or sterilized water were prepared, and membrane potential-clamped at −70 mV by the double electrode potential clamp method. To the potential-clamped oocytes, alanine (10 mM), arginine (10 mM), asparagine (10 mM), aspartic acid (10 mM), cysteine (10 mM), glutamine (10 mM), glutamic acid (10 mM), glycine (10 mM), histidine (10 mM), isoleucine (10 mM), leucine (10 mM), lysine (10 mM), methionine (10 mM), phenylalanine (10 mM), proline (10 mM), serine (10 mM), threonine (10 mM), tryptophan (10 mM), tyrosine (10 mM), valine (10 mM), ornithine (10 mM), taurine (10 mM), or hydroxyproline (10 mM) was added, and Ca ion concentration-dependent Cl response current was measured. […] As for the above-described amino acids, the activating action is reported in Proc. Natl. Acad. Sci. USA, Apr. 25, 2000, 97(9): 4814-9.
The calcium receptor-activating action of D-cysteine was evaluated by using the method described in Example 13. That is, oocytes injected with cRNA of the calcium receptor or sterilized water were prepared, and membrane potential-clamped at −70 mV by the double electrode potential clamp method. To the potential-clamped oocytes, D-cysteine (10 mM), L-cysteine (10 mM), D-tryptophan (10 mM), or L-tryptophan (10 mM) was added, and Ca ion concentration-dependent Cl response current was measured.
The calcium receptor-activating action of a peptide was evaluated by using the method described in Example 13. That is, oocytes injected with cRNA of the calcium receptor or sterilized water were prepared, and membrane potential-clamped at −70 mV by the double electrode potential clamp method.

[2] = system: rat large intestine loop; assay: Fluid absorption in rat large intestine loop method (PGE2-stimulated); assay type: in vivo, rats; conditions: injected into loop 30 minutes after PGE2 i.p.; measured after 1 hour
Procedure: The cecum and large intestine were extirpated from the abdomen of each of male SD (IGS) rats under pentobarbital anesthesia, and the site 5 cm away from the area just under the cecum was ligated to form a large intestine loop Immediately after the loop had been formed, PGE2 (4 μg/ml/kg, SIGMA) was intraperitoneally administered, and after 30 minutes, a medicament, which had been dissolved in 2 ml of Tyrode's solution (NaCl: 136.9 mM, KCl: 2.7 mM, CaCl2.2H2O: 1.8 mM, MgCl2.6H2O: 1.04 mM, NaH2PO4.2H2O: 0.04 mM, NaH2PO4.2H2O: 0.04 mM, glucose: 5.55 mM, NaHCO3: 11.9 mM), was injected into the prepared loop (the medicament solution was adjusted so that the pH would be 6.5 to 7.5). As a control, Tyrode's solution free of any medicament (vehicle) was administered. After 1 hour, the loop weight, the loop weight after solution removal, and the loop area were measured to calculate a solution weight per unit area remaining in the loop.
The remaining solution amount per unit area was calculated with the following equation:
Remaining solution amount per unit area(g/cm^2)=(Loop weight−Loop weight after solution removal)/Loop area.
The fluid absorption was evaluated by calculating an inhibitory rate from the following equation:
Inhibitory rate(%)=100−(Remaining solution amount per unit area under drug administration−Remaining solution amount per unit area in base(average))/(Remaining solution amount per unit area under vehicle administration(average)−Remaining solution amount per unit area in base(average))×100.
(Base=case where no stimulation is given (no treatment with PGE2))

[3] = molecular target: T2, human calcium receptor; assay: cell-based or functional assay
[4] = L-amino acid added at 10 mM, oocytes clamped at -70 mV

| Molecule | Activity (lowest concentration at which current was detected) [1] | also measured |
| --- | --- | --- |
| γ-Glu-Val-Asn ([γGlu]-Val-Asn) | 30 µM |  |
| γ-Glu-Val-Ser ([γGlu]-Val-Ser) | 30 µM |  |
| N[C@@H](CCC(=O)N[C@@H](CSN=O)C(=O)NCC(=O)O)C(=O)O [γ-Glu-Cys(SNO)-Gly] |  | calcium receptor-activating action (Ca ion concentration-dependent Cl response current) ([1]; peptide added at 50 μM): definite calcium receptor-activating action |
| γ-Glu-Val-Arg ([γGlu]-Val-Arg) | 1,000 μM |  |
| γ-Glu-Val-Asp | 1,000 μM |  |
| γ-Glu-Val-Gln ([γGlu]-Val-Gln) | 10 µM |  |
| γ-Glu-Val-Phe ([γGlu]-Val-Phe) | 30 µM |  |
| γ-Glu-Val-Pro ([γGlu]-Val-Pro) | 30 µM |  |
| γ-Glu-Val-Met ([γGlu]-Val-Met) | 1,000 μM |  |
| γ-Glu-Ser-Gly ([γGlu]-Ser-Gly) | 30 µM |  |
| γ-Glu-Gly-Gly ([γGlu]-Gly-Gly) | 30 µM |  |
| γ-Glu-Tau ([γGlu]-[Tau]) | 300 µM |  |
| N[C@@H](Cc1c[nH]c2ccccc12)C(=O)O [tryptophan, reference compound] |  | calcium receptor-activating action (Ca ion concentration-dependent Cl response current) [1, 4]: definite calcium receptor-activating action |
| γ-Glu-Val-Lys ([γGlu]-Val-Lys) | 1,000 μM |  |
| γ-Glu-Val-His ([γGlu]-Val-His) | 100 µM |  |
| γ-Glu-Cys(S-Me)-Gly ([γGlu]-[Cys(S-Me)]-Gly) | 3 µM |  |
| N[C@@H](Cc1ccc(O)cc1)C(=O)O [tyrosine, reference compound] |  | calcium receptor-activating action (Ca ion concentration-dependent Cl response current) [1, 4]: definite calcium receptor-activating action |
| γ-Glu-Abu-Gly ([γGlu]-[Abu]-Gly) | 3 µM |  |
| CC(C)(C)[C@H](NC(=O)CC[C@H](N)C(=O)O)C(=O)NCC(=O)O [γ-Glu-t-Leu-Gly] (γGlu-[Tle]-Gly-OH) |  | fluid absorption (inhibitory rate from remaining solution amount per unit area) [2]: promoted fluid absorption |

| Molecule | Activity (lowest concentration at which current was detected) [1] | also measured |
| --- | --- | --- |
| γ-Glu-Cys(S-allyl)-Gly ([γGlu]-[Cys(S-allyl)]-Gly) | 100 µM |  |
| γ-Glu-Val-Thr ([γGlu]-Val-Thr) | 1,000 μM |  |
| N[C@@H](Cc1c[nH]cn1)C(=O)O [histidine, reference compound] |  | calcium receptor-activating action (Ca ion concentration-dependent Cl response current) [1, 4]: definite calcium receptor-activating action |
| γ-Glu-Val-Val ([γGlu]-Val-Val) | 1,000 μM |  |
| γ-Glu-Orn ([γGlu]-[Orn]) |  | calcium receptor-activating action (Ca ion concentration-dependent Cl response current) ([1]; peptide added at 500 μM): definite calcium receptor-activating action |
| γ-Glu-Val-Cys ([γGlu]-Val-Cys) | 10 µM |  |
| N[C@H](CS)C(=O)O [D-cysteine, reference compound] |  | calcium receptor-activating action (Ca ion concentration-dependent Cl response current) ([1]; D-amino acid added at 10 mM, oocytes clamped at -70 mV): definite calcium receptor-activating action |
| N[C@@H](Cc1ccccc1)C(=O)O [phenylalanine, reference compound] |  | calcium receptor-activating action (Ca ion concentration-dependent Cl response current) [1, 4]: definite calcium receptor-activating action |
| γ-Glu-t-Leu ([γGlu]-[Tle]) | 100 µM |  |
| N[C@@H](CS)C(=O)O [cysteine, reference compound] |  | calcium receptor-activating action (Ca ion concentration-dependent Cl response current) [1, 4]: definite calcium receptor-activating action |
| γ-Glu-Val-Orn ([γGlu]-Val-[Orn]) | 100 µM |  |
| γ-Glu-γ-Glu-Val ([γGlu]-[γGlu]-Val) | 1,000 μM |  |
| γ-Glu-Val-Glu ([γGlu]-Val-Glu) | 1,000 μM |  |
| [γGlu]-Val-GlyA [γ-Glu-Val-GlyA] |  | EC50, calcium imaging (Calcium 3 assay kit, FLEXSTATION) in HEK 293 cells expressing human CaSR [3]: 140 nM |
| [γGlu]-[Abu]-{LacA″} [γ-Glu-Abu-LacA] |  | EC50, calcium imaging (Calcium 3 assay kit, FLEXSTATION) in HEK 293 cells expressing human CaSR [3]: 102 nM |
| [γGlu]-Val-LacA [γ-Glu-Val-LacA] |  | EC50, calcium imaging (Calcium 3 assay kit, FLEXSTATION) in HEK 293 cells expressing human CaSR [3]: 57 nM |
| [γGlu]-[Tle]-{GlyA″} [γ-Glu-t-Leu-GlyA] |  | EC50, calcium imaging (Calcium 3 assay kit, FLEXSTATION) in HEK 293 cells expressing human CaSR [3]: 50 nM |
| [γGlu]-[Tle]-{LacA″} [γ-Glu-t-Leu-LacA] |  | EC50, calcium imaging (Calcium 3 assay kit, FLEXSTATION) in HEK 293 cells expressing human CaSR [3]: 38 nM |
